Laboratory results published in publication PMC7237134.

Tests used:
Experiment in all cases: fluorescence anisotropy
[1] = target: T1, Sgd1 MIF4G-Cterm (MIF4G, MA3 and C-terminal region) (Saccharomyces cerevisiae, UniProt Q06132 330-899)
T1 sequence: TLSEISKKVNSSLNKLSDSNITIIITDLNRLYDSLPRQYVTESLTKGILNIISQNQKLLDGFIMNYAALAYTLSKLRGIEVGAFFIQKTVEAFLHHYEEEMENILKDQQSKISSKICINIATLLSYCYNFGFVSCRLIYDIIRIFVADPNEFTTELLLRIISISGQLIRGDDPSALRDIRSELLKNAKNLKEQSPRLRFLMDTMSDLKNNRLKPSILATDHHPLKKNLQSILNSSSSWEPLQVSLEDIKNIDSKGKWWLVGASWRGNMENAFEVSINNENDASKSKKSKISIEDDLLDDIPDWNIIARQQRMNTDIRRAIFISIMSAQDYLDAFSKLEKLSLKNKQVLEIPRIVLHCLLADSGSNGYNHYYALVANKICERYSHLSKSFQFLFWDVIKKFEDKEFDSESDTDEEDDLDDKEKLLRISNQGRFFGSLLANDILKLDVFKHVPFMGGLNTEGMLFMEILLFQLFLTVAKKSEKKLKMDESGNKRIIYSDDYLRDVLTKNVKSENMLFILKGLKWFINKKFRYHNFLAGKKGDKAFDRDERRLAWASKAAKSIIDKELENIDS

Sgd1 MA3-Cterm = target: T2, Sgd1 MA3-Cterm (Saccharomyces cerevisiae, UniProt Q06132 645-899)
T2 sequence: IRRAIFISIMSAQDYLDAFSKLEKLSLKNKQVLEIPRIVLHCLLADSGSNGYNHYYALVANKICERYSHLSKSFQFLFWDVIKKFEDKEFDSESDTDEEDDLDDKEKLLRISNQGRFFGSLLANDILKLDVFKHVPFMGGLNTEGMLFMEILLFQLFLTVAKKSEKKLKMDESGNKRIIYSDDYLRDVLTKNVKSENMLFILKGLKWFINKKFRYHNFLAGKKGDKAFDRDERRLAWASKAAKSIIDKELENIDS

Sgd1 Nterm-MIF4G = target: T3, Sgd1 Nterm-MIF4G (Saccharomyces cerevisiae, UniProt Q06132 1-541)
T3 sequence: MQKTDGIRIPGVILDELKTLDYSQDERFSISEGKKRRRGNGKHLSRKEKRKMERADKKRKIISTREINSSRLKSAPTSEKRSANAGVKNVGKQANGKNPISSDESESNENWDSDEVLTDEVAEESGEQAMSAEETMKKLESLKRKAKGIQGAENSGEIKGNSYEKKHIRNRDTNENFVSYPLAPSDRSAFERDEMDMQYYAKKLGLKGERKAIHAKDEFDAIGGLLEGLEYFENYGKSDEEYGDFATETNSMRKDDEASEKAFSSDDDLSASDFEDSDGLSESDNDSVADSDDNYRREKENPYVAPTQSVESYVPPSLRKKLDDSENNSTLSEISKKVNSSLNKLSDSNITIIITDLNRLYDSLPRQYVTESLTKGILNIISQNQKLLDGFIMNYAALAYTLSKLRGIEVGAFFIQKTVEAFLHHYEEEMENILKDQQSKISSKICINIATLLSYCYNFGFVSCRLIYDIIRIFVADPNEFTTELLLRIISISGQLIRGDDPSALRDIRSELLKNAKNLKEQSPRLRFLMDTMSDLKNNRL

B1: 11 nt Atto647-labelled RNA (ssRNA)
RNA: GUAAUGAAAGU
binding result [1]: binds
binding result (Sgd1 MA3-Cterm): binds
binding result (Sgd1 Nterm-MIF4G): no binding
